Source: US6348311B1, “ATM kinase modulation for screening and therapies” (St. Jude Childre's Research Hospital, priority 1999, dated 2002)

What was measured:
ATM kinase [1] = assay: ATM immunoprecipitated from SY5Y neuroblastoma cells after IGF-I, in vitro kinase assay with GST-p53; assay type: cell-based; conditions: differentiated SY5Y cells, 10nM IGF-I
Procedure: Since the growth factor and survival factor insulin-like growth factor (IGF)-I activates cellular signaling in a manner similar to insulin, the insulin observations above led us to also investigate whether IGF-I might activate ATM kinase. […] Undifferentiated and differentiated SY5Y cells were treated with IGF-I and ATM activation was assessed.
ATM was immunoprecipitated from either undifferentiated or differentiated SY5Y neuroblastoma cells after treatment with 10nM IGF-I (control cells were untreated). The immunoprecipitated ATM was then used in an in vitro kinase assay with the GST-p53 protein as the substrate. Equivalent amounts of ATM and GST-p53 were used.

ATM kinase [2] = assay: ATM immunoprecipitated from differentiated 3T3-L1 cells with or without insulin, in vitro kinase assay with GST-4E-BP1; assay type: cell-based; conditions: GST-4E-BP1 substrate
Description: ATM was immunoprecipitated from 3T3-L1 after differentiation and without (−) or with (+) exposure to insulin. The immunoprecipitated ATM was then used in an in vitro kinase assay with GST-4E-BP1 protein as the substrate. Equivalent amounts of ATM and GST-4E-BP1 were used.

4E-BP1 bound to eIF-4E = assay: Insulin induced release of 4E-BP1 from eIF-4E in fibroblasts (Western blot); assay type: cell-based, mice
Procedure: Fibroblasts from normal or AT mice were treated with (+) or without (−) insulin and total cellular and complexed eIF-4E and 4E-BP1 were examined by Western blot. Total cellular eIF-4E and 4E-BP1 were unchanged by insulin treatment. The amount of 4E-BP1 bound to eIF-4E was examined by immunoprecipitating eIF-4E with a methyl-G column and then blotting for both proteins.

Row | Substance | ATM kinase activity after IGF-I treatment (ATM kinase [1]) | ATM kinase activity after insulin treatment (ATM kinase [2]) | release of 4E-BP1 from eIF-4E (4E-BP1 bound to eIF-4E; AT cells (A38)) | release of 4E-BP1 from eIF-4E (4E-BP1 bound to eIF-4E; normal cells (A29))
1 | IGF-I: insulin-like growth factor (IGF)-I, growth and neuronal survival factor | significantly enhanced | – | – | –
2 | Insulin: insulin | – | significantly enhanced | much less 4E-BP1 was released | caused a release of 4E-BP1 from eIF-4E
